# T1: VP6 fragment (VP6f), residues 147-339 (Rotavirus A, strain of the VP6 DNA …)
# T1 construct: also called VP6 head domain construct
# T1 chain: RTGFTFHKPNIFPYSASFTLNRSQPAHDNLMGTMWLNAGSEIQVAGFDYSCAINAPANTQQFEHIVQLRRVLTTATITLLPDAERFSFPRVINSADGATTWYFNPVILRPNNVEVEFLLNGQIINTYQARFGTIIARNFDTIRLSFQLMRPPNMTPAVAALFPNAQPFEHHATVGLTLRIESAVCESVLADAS
# Target: T1, VP6 fragment (VP6f), residues 147-339
# Test: HDX-MS
# Details: both partners purified
binder,measurement,value
"RV6-26 Fab (Fab, V domains shown) VH: EFQLVESGAEVKKPGASVKVSCKASGYSFTSYYVHWVREAPGEGLEWMGMINPSDGSTYYAQRFQPRVTMTRDTSTTTVFMEMSGLRSEDTAVYYCARGVVGATNEIDFWGQGTTVTVSS VL: DIRLTQSPSSLSASVGDRVTITCRASQSISNYLNWYQKKPGQAPKLLIYAATSLQSGVPSRFSGSGSGTDFTLTISSVQPEDFATYYCQKTLRTWTFGQGTKVEIK",binding result,binds

# From publication PMC3650007, “Human Rotavirus VP6-Specific Antibodies Mediate Intracellular Neutralization by Binding to a Quaternary Structure in the Transcriptional Pore” (PLoS ONE, 2013)
